Results from paper PMC11019746 (ACS Pharmacology & Translational Science, 2024).

Tests used:
[1] = target: hY4R-Nluc(intraECL2) (human) (UniProt P50391)
[2] = target: Sulfo-Cy5-[K4]hPP (Homo sapiens) (UniProt P01298); details: cited from earlier work
[3] = target: 5-TAMRA-[K18,Nle17,30]hPP (2) (Homo sapiens) (UniProt P01298); details: cited from earlier work
[4] = target: T1, human neuropeptide Y Y4 receptor (wild-type, CHO-hY4R-Gqi5-mtAEQ cells) (human, UniProt P50391 1-375); assay: cell-based or functional assay
[5] = target: human neuropeptide Y Y1 receptor (human) (UniProt P25929); assay: radioligand binding; competition with [^3H]UR-MK299 ([…]) at intact SK-N-MC cells, 23 ± 2 °C, buffer II (150 mM NaCl)
human neuropeptide Y Y1 receptor (human), sequence (P25929 whole entry): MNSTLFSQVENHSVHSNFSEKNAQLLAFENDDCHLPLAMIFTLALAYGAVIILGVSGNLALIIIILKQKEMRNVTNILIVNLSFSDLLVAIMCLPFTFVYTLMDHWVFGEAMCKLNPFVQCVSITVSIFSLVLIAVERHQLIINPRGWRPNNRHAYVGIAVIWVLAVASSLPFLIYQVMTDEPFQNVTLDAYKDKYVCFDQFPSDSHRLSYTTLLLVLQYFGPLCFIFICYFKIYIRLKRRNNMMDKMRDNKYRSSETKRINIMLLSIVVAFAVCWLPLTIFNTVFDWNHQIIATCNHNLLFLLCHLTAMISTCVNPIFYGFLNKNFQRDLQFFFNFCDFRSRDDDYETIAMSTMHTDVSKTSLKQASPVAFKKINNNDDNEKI

[6] = target: human neuropeptide Y Y5 receptor (human) (UniProt Q15761); assay: radioligand binding; competition with [^3H]propionyl-pNPY (5 nM) at intact HEC-1B-hY5R cells, 23 ± 2 °C, buffer II (150 mM NaCl)
human neuropeptide Y Y5 receptor (human), sequence (Q15761 whole entry): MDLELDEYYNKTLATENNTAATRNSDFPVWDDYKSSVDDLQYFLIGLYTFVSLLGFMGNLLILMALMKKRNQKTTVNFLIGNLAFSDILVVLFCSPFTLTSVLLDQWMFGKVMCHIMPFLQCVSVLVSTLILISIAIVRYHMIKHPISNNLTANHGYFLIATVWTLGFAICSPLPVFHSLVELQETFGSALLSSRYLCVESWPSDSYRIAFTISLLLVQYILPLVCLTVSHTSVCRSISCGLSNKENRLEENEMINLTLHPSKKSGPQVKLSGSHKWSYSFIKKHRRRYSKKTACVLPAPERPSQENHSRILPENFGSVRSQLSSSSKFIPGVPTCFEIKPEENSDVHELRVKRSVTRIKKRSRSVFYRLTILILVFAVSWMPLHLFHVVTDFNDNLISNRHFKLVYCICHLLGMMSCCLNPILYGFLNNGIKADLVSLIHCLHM

[7] = target: T2, human neuropeptide Y Y2 receptor (human, UniProt P49146 1-381); assay: radioligand binding; competition with [^3H]propionyl-pNPY (0.5 nM) at intact CHO-hY2R cells, 23 ± 2 °C, buffer I (sodium-free); details: one partner purified
T2 construct: also called hY2R; source: CHO-hY2R cells (from PerkinElmer), intact cells
T2 sequence (looked up): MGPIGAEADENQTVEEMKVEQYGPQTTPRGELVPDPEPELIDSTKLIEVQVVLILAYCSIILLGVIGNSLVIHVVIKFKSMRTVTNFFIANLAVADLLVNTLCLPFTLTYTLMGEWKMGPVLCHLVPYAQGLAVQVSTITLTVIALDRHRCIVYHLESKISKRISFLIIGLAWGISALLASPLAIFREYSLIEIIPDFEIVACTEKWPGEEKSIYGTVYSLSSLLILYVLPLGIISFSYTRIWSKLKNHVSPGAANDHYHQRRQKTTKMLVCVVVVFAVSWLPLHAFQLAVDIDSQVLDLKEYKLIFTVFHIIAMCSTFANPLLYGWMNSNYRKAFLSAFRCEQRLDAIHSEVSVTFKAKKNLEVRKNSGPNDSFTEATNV

[8] = target: T1, human neuropeptide Y Y4 receptor …; assay: radioligand binding; competition with [^3H]UR-KK200 (1.0 nM) at intact CHO-hY4R-Gqi5-mtAEQ cells, 23 ± 2 °C, buffer I (sodium-free); details: one partner purified

Molecule: human pancreatic polypeptide (from UniProt P01298 30-65)
- pKi [1]: 7.7

Molecule: Y4 receptor (from UniProt P50391)
- Kd [2]: 5.6 nM
- Kd [3]: 26 nM

B1: cyclic peptide 11 (alkyne-functionalized precursor peptide) (peptide)
peptide: RYRLRY
modifications: N^α-succinyl; N^ω-[hex-5-ynylaminocarbonyl]-Arg at position 1; N^ω-[(aminobutyl)aminocarbonyl]-Arg at position 3; cyclized via the succinyl carboxylic group and the primary amino group of the carbamoylated arginine in position 3; C-terminal amide
notes: printed in three-letter code for the linear precursor 10: N^α-succinyl-N^ω[hex-5-ynylaminocarbonyl]-Arg-Tyr-N^ω-[(aminobutyl)aminocarbonyl]Arg-Leu-Arg-Tyr-amide; 11 is its cyclized form; source: synthetic peptide (SPPS of linear peptide 10, cyclization in solution, preparative HPLC)
- EC50, miniGsi recruitment assay (HEK293T-NlucN-mGsi/Y4R-NlucC cells) [4]: 73 nM
- pKi [5]: < 5
- pKi [6]: < 5.5
- pKi [7]: < 5
- Ki [8]: 0.42 nM
